Measured values from publication PMC6039487.

Key:
[1] = target: MC4R(C319Ter), expressed from mCherry-2A-MC4R (human) (UniProt P32245)
[2] = target: wild-type MC4R (melanocortin 4 receptor), expressed from mCherry-2A-MC4R (human) (UniProt P32245)
[3] = target: MC4R(L328Ter), expressed from mCherry-2A-MC4R (human) (UniProt P32245)

EC50 of α-MSH induced cAMP production, pGloSensor luciferase cAMP assay in transfected HEK293 cells (dose-response, 10 min stimulation) [1]: 2.7 nM
EC50 of α-MSH induced cAMP production, pGloSensor luciferase cAMP assay in transfected HEK293 cells (dose-response, 10 min stimulation) [2]: 2.5 nM
EC50 of α-MSH induced cAMP production, pGloSensor luciferase cAMP assay in transfected HEK293 cells (dose-response, 10 min stimulation) [3]: 3.3 nM
Substance: α-MSH (peptide)
